Measured values reported in patent publication US12344637B2, “Virus-inspired compositions and methods of redirecting preexisting immune responses using the same for treatment of cancer” (priority 2020, dated 2025).

Legend:
MC38 cells [1] = test: OVA peptide loading in the presence of furin inhibitor; type: cell-based, murine; conditions: IRC 2.5 μg/mL
Protocol: (Millipore-Sigma, St. Louis, MO). This furin inhibitor binds irreversibly to the catalytic site of furin, blocking all furin protease activity.
Briefly, 2×10^5 MC38 cells (murine colon adenocarcinoma, #ENH204-FP, Kerafast, Inc., Boston MA) were seeded in a FACs tube and then incubated with either 0.5 μM, […], or 50 μM furin inhibitor dissolved in DMSO at total final sample volume of 200 μL. Control samples containing no inhibitor were prepared the same way with the same volume equivalent of DMSO. The samples were incubated for fifteen minutes in a tissue culture incubator at 37° C., 5% CO2. Then, 2.5 μg/mL of OVA-conjugated MPV.10.34.d IRC was added to all samples and the samples were incubated in a tissue culture incubator at 37° C., 5% CO2. Samples were then washed twice with 2 to 3 mL FACS buffer and then stained with PE-conjugated-mouse anti-mouse MHC I bounded with OVA (SIINFEKL, SEQ ID NO:95) monoclonal antibody (Biolegend, Cat #141604, San Diego, CA) for 30 minutes at 4° C. Following this, samples were washed once with 3 mL FACS buffer then the cells were resuspended in 250 μL of FACS buffer before being analyzed by a CytoFLEX flow cytometer. (Beckman Coulter Life Sciences, Brea, CA, US).

[2] = HPV16 L1 deletion mutants; cited from earlier work
ELISA of anti-MPV sera = type: binding, rabbits; conditions: data not shown
Protocol: (§1) Antibodies against wild type MPV were generated as follows: New Zealand white rabbits (n=3) were administered three intra-muscular vaccinations of 50 μg of wild type mouse papillomavirus particles per dose. Rabbits were vaccinated at months 0, 1, and 2. After two weeks post final vaccination, rabbits were bled to obtain the anti-MPV sera. Antibodies against MPV.10.34.d IRC were obtained as follows: naïve 6 to 8 week old C57/BL6 mice (n=10) were injected systemically with two doses of 150 μg of E7-conjugated MPV.10.34.d over a period of 48 hours. After 48 hours, the mice were bled to obtain the anti-MPV.10.34.d IRC sera.
(§2) Specificity of anti-MPV.10.34.d IRC sera and anti-MPV sera to both MPV.10.34.d capsid backbone and MPV.10.34.d IRC was examined by ELISA. The assays were performed as described in Example 5 with the following differences: serum samples were tested at a 1:100 dilution factor and two-fold serial dilutions. Goat anti-mouse IgG-HRP secondary antibody was used in the ELISA (1:7000). Binding of anti-MPV.10.34.d IRC sera (FIG. 31) and anti-MPV scrum (data not shown) to both MPV.10.34.d capsid backbone (FIG. 31A) and MPV.10.34.d IRC (FIG. 31B) was observed.

MC38 cells [3] = test: In vitro cell binding assay (flow cytometry), MC38; type: cell-based, murine; conditions: MC38, 1 h 37° C.
Protocol: (§3) To assess whether IRC bind to tumor cells, an in vitro cell binding assay was conducted. Specifically, both MPV.10.34.d capsid backbones (unconjugated) as well as different conjugated IRC (human CMV pp65, murine E7, and murine OVA peptide) were examined.
(§4) Briefly, 2×10^5 MC38 cells (murine colon adenocarcinoma, #ENH204-FP Kerafast, Inc., Boston MA) or pgsA-745 cells (Chinese hamster ovary cell mutant deficient in xylosyltransferase (UDP-D-xylose:serine-1,3-D-xylosyltransferase, ATCC CRL-2242) in which heparin sulfate proteoglycan (HSPG) expression is knocked out, were seeded overnight. The next day, the cells were treated with human CMV pp65, murine HPV16 E7, and murine OVA peptide, as well as the MPV.10.34.d capsid backbone for one hour at 37° C. Cells were then washed twice with 2 to 3 mL of a fluorescence activated cell sorting (FACS) buffer (1% bovine serum albumin in PBS) and then stained with 1 mL of rabbit anti-musPsV serum antibodies for 30 minutes at 4° C. Following this, samples were washed once with 3 mL FACS buffer and stained with 0.5 mL of donkey anti-rabbit IgG-PE antibody (Biolegend, San Diego, CA) for 30 min at 4° C. in the dark. Finally, samples were washed once more with 3 mL FACS buffer and then resuspended in […] of FACS buffer before being analyzed by a CytoFLEX flow cytometer (Beckman Coulter Life Sciences, Brea, CA, US).

HCT116 = test: In vitro cytotoxicity assay with human CMV T cells, HCT116; type: cell-based; conditions: HCT116, 2.5 μg/mL, E:T 10:1, 24 hrs
Protocol: (§5) In these experiments, CD8+ T cell responses to CMV peptides were tested in three different human tumor cell lines, including HCT116, OVCAR3, and MCF7. All three of these human tumor cell lines are HLA-A*0201 positive.
(§6) In Vitro Cytotoxicity Assays. […], human colon cancer cells, MCF7, human breast cancer cells, and OVCAR3, human ovarian cancer cells (all from ATCC, Manassas, VA, US) were seeded overnight at 0.01 to 0.2×10^6 per well per 100 μL per 96 well plate. The next day (about 20 to 22 hrs later), each cell line was incubated for one hour at 37° C. under the following conditions: (1) CMV peptide at a final concentration of 1 μg/mL (positive control), (2) MPV.10.34.d at a final concentration of 2.5 μg/mL (negative control), (3) CMV-conjugated MPV.10.34.d IRC at a final concentration of 2.5 μg/mL, (4) CMV-conjugated HPV16 IRC at a final concentration of 2.5 μg/mL, and (5) no antigen (negative control). After 1 hour, the cells were washed vigorously with 200 μL of media for three times to remove non-specific binding. […] Cell viability was measured after co-culturing. Cell viability was measured with CELLTITER-GLO® (Promega, Madison, WI, US). […] The amount of ATP generated from tumor cells was quantified according to manufacturer protocols.

[4] = ELISA of anti-MPV.10.34.d IRC sera; type: binding, mice; conditions: serum from 1:100, two-fold dilutions
Protocol: as §1, §2

[5] = tested on: MPV.A4 monoclonal antibody; test: ELISA with MPV.A4 conformational monoclonal antibody; type: binding
Protocol: The MPV.A4 antibody is a conformational antibody that specifically binds to MPV L1 in the form of T=1 or T=7 capsid backbone structure. This antibody will not bind to denatured or monomeric MPV L1. (Hafenstein et al., 2020, “Atomic Resolution CRYOEM structure of Mouse Papillomavirus,” International Papillomavirus Conference, Jul. 20-24, 2020). To determine whether MPV.10.34.d undergoing the steps in Example 1 or Example 4 yields a T=1 capsid backbone, ELISA was performed on these samples with the MPV.A4 monoclonal antibody.
Samples from Example 1 and Example 4 of equal concentrations (starting concentration of 1000 ng/well) were subjected to ELISA. To ensure that both soluble and refolded MPV.10.34.d were equally bound to the ELISA plate (Nunc Maxisorp, ThermoFisher Scientific, Waltham, MA, US), both samples were first buffer exchanged into either 50 mM NaPO4, 450 mM NaCl at pH 6 or pH 7. […] Based on this, a total of four sample conditions were two-fold serially diluted and subjected to ELISA with the MPV.A4 monoclonal antibody.
Briefly, eight different amounts of protein (7.8 ng to 1 μg) for each sample under both pH conditions (into either 50 mM NaPO4, 450 mM NaCl at pH 6 or pH 7) were first added to the ELISA plate and the plate was stored at 4° C. […] The absorbance of the sample plates were read at 450 nm and 620 nm with a plate reader (BioTek, Winooski, VT, US).

MCF7 = test: In vitro cytotoxicity assay with human CMV T cells, MCF7; type: cell-based; conditions: MCF7, 2.5 μg/mL, E:T 10:1, 24 hrs
Protocol: as §5, §6

[6] = Transmission electron microscopy (TEM) size and structure; type: physicochemical; conditions: purified refolded capsid backbone
Protocol: TEM analysis was also employed to obtain further visual confirmation of the structure and size of the refolded proteins. Samples (10 μL) were adsorbed to glow discharged (EMS GloQube) carbon coated 400 mesh copper grids (EMS), by floatation for 2 min. Grids were quickly blotted and then rinsed in 3 drops (1 min each) of TBS. Grids were negatively stained in 2 consecutive drops of 1% uranyl acetate with tylose (1% UAT, double filtered, 0.22 μm filter), blotted then quickly aspirated to obtain a thin layer of stain covering the sample. Grids were imaged on a Phillips CM-120 TEM operating at 80 kV with an AMT XR80 CCD (8 megapixel).

pgsA-745 cells = test: In vitro cell binding assay (flow cytometry), HSPG knock-out cells; type: cell-based, Chinese hamster; conditions: pgsA-745, 1 h 37° C.
Protocol: as §3, §4

OVCAR3 = test: In vitro cytotoxicity assay with human CMV T cells, OVCAR3; type: cell-based; conditions: OVCAR3, 2.5 μg/mL, E:T 10:1, 24 hrs
Protocol: as §5, §6

decanoyl-RVKR-CMKa [furin inhibitor, reference compound]
OVA peptide loading (MC38 cells [1]; furin inhibitor 0.5 μM): prevents OVA-conjugated MPV.10.34.d IRCs from loading OVA epitopes
OVA peptide loading (MC38 cells [1]; furin inhibitor 5 μM): prevents OVA-conjugated MPV.10.34.d IRCs from loading OVA epitopes
OVA peptide loading (MC38 cells [1]; furin inhibitor 50 μM): prevents OVA-conjugated MPV.10.34.d IRCs from loading OVA epitopes

ΔN = 0: HPV16 L1 protein without N-terminal deletion (Chen et al., 2000)
Apparent Diameter of Assembled Particle (Å) [2]: 600 Å

B1: MPV.10.34.d capsid backbone (protein)
chain: MLYLPPTTPVAKVQSTDEYVYPTSLFCHAHTDRLLTVGHPFFSVIDNDKVTVPKVSGNQYRVFRLKFPDPNKFALPQKDFYDPEKERLVWRLRGLEIGRGGPLGIGTTGHPLFNKLGDTENPNKYQQGSKDNRQNTSMDPKQTQLFIVGCEPPTGEHWDVAKPCGALEKGDCPPIQLVNSVIEDGDMCDIGFGNMNFKELQQDRSGVPLDIVSTRCKWPDFLKMTNEAYGDKMFFFGRREQVYARHFFTRNGSVGEPIPNSVSPSDFYYAPDSTQDQKTLAPSVYFGTPSGSLVSSDGQLFNRPFWLQRAQGNNNGVCWHNELFVTVVDNTRNTNFTISQQTNTPNPDTYDSTNFKNYLRHVEQFELSLIAQLCKVPLDPGVLAHINTMNPTILENWNLGFVPPKEREDPYKGLIFWEVDLTERFSQDLDQFALGRKFLYQ
binding of anti-MPV serum (ELISA) (ELISA of anti-MPV sera): Binding
binding to tumor cells (peak shift) (MC38 cells [3]): exhibited specificity for tumor cells
redirection of CMV pp65-specific CD8+ T-cells to kill tumor cells (HCT116): no background tumor killing
binding of anti-MPV.10.34.d IRC sera (ELISA) [4]: Binding
binding of anti-MPV.10.34.d IRC sera (ELISA) ([4]; listed as MPV.10.34.d capsid backbones): specifically recognize and bind
recognition by MPV.A4 conformational monoclonal antibody ([5]; refolded from IBs (Example 1)): recognized
recognition by MPV.A4 conformational monoclonal antibody ([5]; soluble (Example 4), pH 6 or pH 7): recognized
redirection of CMV pp65-specific CD8+ T-cells to kill tumor cells (MCF7): no background tumor killing
diameter (TEM) [6]: ~30 nm
binding to cells lacking HSPG expression (pgsA-745 cells): no binding
redirection of CMV pp65-specific CD8+ T-cells to kill tumor cells (OVCAR3): no background tumor killing
